Source: patent publication US20130039923A1 (Novo Nordisk, published 2013)
Positions count from the first letter of the chain named. Like-named read-outs stand apart in the source and are kept apart here. Ends that are not written are not given here.

Legend:
[1] = molecular target: T1, Peptide no. 44 (Figure 8A); test: Ala-scan peptide array of hIL20 74-96 on cellulose; fluorescein-labelled antibody; fluorescence as OD
T1 construct: Ala-scan peptide on the array; also called Peptide no; D78A
T1 peptide: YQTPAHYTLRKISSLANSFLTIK
Protocol: (§1) The screenings were done using fluorescence labelled antibodies. The labelling was done by gel-filtering the antibody stock against 1% NaHCO3, using NAP5 column (GE Healthcare according the manual from manufacturer. This was followed by adding 25 mole equivalents of 5(6)-carboxyfluorescein N-hydroxysuccinimide ester (Sigma, C1609) dissolved in DMSO. The coupling was allowed to continue for 2 hours followed by a gelfiltration against TRIS washing buffer (50 mM TRIS, pH=7.4, 0.15M NaCl, 0.1 M ArgHCl, 0.05% Tween 20) in order to removed uncoupled fluorescein.
(§2) Screening of arrays were done by adding 10 μl of antibody to 30 ml incubation buffer (0.5% BSA, 50 mM TRIS, pH=7.4, 0.15M NaCl, 0.1 M ArgHCl, 0.05% Tween 20). The sheets were incubated for 1-2 hours, followed by washing five times with washing buffer. […] The fluorescence intensity were measured and transformed into digits that were exported to Prism 5 (Graph Pad Software, USA) for further analysis.

[2] = molecular target: T2, Peptide no. 58 (Figure 8A); test: as above
T2 construct: Ala-scan peptide on the array; also called Peptide no; L93A
T2 peptide: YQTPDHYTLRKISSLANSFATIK
Protocol: as §1, §2

[3] = molecular target: T3, Peptide no. 56 (Figure 8A); test: as above
T3 construct: Ala-scan peptide on the array; also called Peptide no; S91A
T3 peptide: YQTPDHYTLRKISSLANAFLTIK
Protocol: as §1, §2

[4] = molecular target: T4, Peptide no. 41 (Figure 8A); test: as above
T4 construct: Ala-scan peptide on the array; also called Peptide no; Q75A
T4 peptide: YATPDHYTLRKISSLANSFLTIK
Protocol: as §1, §2

[5] = molecular target: T5, Peptide no. 16 (Figures 7A, 7B) (also: N-terminus acylated); test: array of terminally truncated, acylated hIL20 peptides on cellulose; fluorescein-labelled antibody; fluorescence as OD
T5 construct: peptide array on cellulose
T5 peptide: DHYTLRKISSLANSFLTIK
Protocol: as §1, §2

[6] = molecular target: T6, Peptide no. 2 (Figures 7A, 7B) (N-terminus acylated); test: as above
T6 construct: peptide array on cellulose
T6 peptide: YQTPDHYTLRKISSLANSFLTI
Protocol: as §1, §2

[7] = molecular target: T7, Peptide no. 13 (Figures 7A, 7B) (N-terminus acylated); test: as above
T7 construct: peptide array on cellulose
T7 peptide: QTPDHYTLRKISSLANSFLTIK
Protocol: as §1, §2

[8] = molecular target: T8, Peptide no. 3 (Figures 7A, 7B) (N-terminus acylated); test: as above
T8 construct: peptide array on cellulose
T8 peptide: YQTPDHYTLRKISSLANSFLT
Protocol: as §1, §2

[9] = molecular target: T9, Peptide no. 5 (Figures 7A, 7B) (also: N-terminus acylated); test: as above
T9 construct: peptide array on cellulose
T9 peptide: YQTPDHYTLRKISSLANSF
Protocol: as §1, §2

[10] = molecular target: T10, Peptide no. 7 (Figures 7A, 7B) (also: N-terminus acylated); test: as above
T10 construct: peptide array on cellulose
T10 peptide: YQTPDHYTLRKISSLAN
Protocol: as §1, §2

[11] = molecular target: T11, Peptide no. 17 (Figures 7A, 7B) (also: N-terminus acylated); test: as above
T11 construct: peptide array on cellulose
T11 peptide: HYTLRKISSLANSFLTIK
Protocol: as §1, §2

[12] = molecular target: T12, Peptide no. 6 (Figures 7A, 7B) (also: N-terminus acylated); test: as above
T12 construct: peptide array on cellulose
T12 peptide: YQTPDHYTLRKISSLANS
Protocol: as §1, §2

[13] = molecular target: T13, Peptide no. 14 (Figures 7A, 7B) (N-terminus acylated); test: as above
T13 construct: peptide array on cellulose
T13 peptide: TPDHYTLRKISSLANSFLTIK
Protocol: as §1, §2

[14] = molecular target: T14, Peptide no. 1 (Figures 7A, 7B) (N-terminus acylated); test: as above
T14 construct: peptide array on cellulose
T14 peptide: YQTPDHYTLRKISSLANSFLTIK
Protocol: as §1, §2

[15] = molecular target: T15, Peptide no. 4 (Figures 7A, 7B) (N-terminus acylated); test: as above
T15 construct: peptide array on cellulose
T15 peptide: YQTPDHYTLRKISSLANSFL
Protocol: as §1, §2

[16] = molecular target: T16, Peptide no. 15 (Figures 7A, 7B) (N-terminus acylated); test: as above
T16 construct: peptide array on cellulose
T16 peptide: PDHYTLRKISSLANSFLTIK
Protocol: as §1, §2

[17] = molecular target: T17, Peptide no. 87 (Figure 6A); test: 18mer hIL20 peptide array on cellulose, 4 residue walk; fluorescein-labelled antibody; fluorescence as OD
T17 construct: also called Peptide no
T17 peptide: PDHYTLRKISSLANSFLT
Protocol: as §1, §2

[18] = molecular target: T18, Peptide no. 86 (Figure 6A); test: as above
T18 construct: also called Peptide no
T18 peptide: NYQTPDHYTLRKISSLAN
Protocol: as §1, §2

[19] = molecular target: T6, Peptide no. 2 (Figures 7A, 7B); test: array of terminally truncated, acylated hIL20 peptides on cellulose; fluorescein-labelled antibody; fluorescence as OD
Protocol: as §1, §2

[20] = molecular target: T7, Peptide no. 13 (Figures 7A, 7B); test: as above
Protocol: as §1, §2

[21] = molecular target: T8, Peptide no. 3 (Figures 7A, 7B); test: as above
Protocol: as §1, §2

[22] = molecular target: T9, Peptide no. 5 (Figures 7A, 7B); test: as above
Protocol: as §1, §2

[23] = molecular target: T19, Peptide no. 18 (Figures 7A, 7B) (also: N-terminus acylated); test: as above
T19 construct: peptide array on cellulose
T19 peptide: YTLRKISSLANSFLTIK
Protocol: as §1, §2

[24] = molecular target: T12, Peptide no. 6 (Figures 7A, 7B); test: as above
Protocol: as §1, §2

B1: human anti-hIL20 monoclonal antibody 15D2 (antibody, V domains shown)
VH: QVQLVQSGAEVKRPGASVKVSCKASGYTFTNDIIHWVRQAPGQRLEWMGWINAGYGNTQYSQNFQDRVSITRDTSASTAYMELISLRSEDTAVYYCAREPLWFGESSPHDYYGMDVWGQGTTVTVSS
VL: AIQLTQSPSSLSASVGDRVTITCRASQGISSALAWYQQKPGKAPKLLIYDASSLESGVPSRFSGSGSGTDFTLTISSLQPEDFATYYCQQFNSYPLTFGGGTKVEIKR
notes: also called 15D2-wt; 15D2 wild-type
- binding result [1]: binds
- binding result [2]: binds
- binding result [3]: binds
- binding result [4]: binds
- binding result [5]: binds
- binding result [6]: binds
- binding result [7]: binds
- binding result [8]: binds
- binding result [9]: binds
- binding result [10]: binds
- binding result [11]: binds
- binding result [12]: binds
- binding result [13]: binds
- binding result [14]: binds
- binding result [15]: binds
- binding result [16]: binds

B2: human anti-hIL20 monoclonal antibody 5B7 (antibody, human IgG4, V domains shown)
VH: B1 VH with T30S, N31S, D32H, I34M, Q59K, S69T, S106L
VL: B1 VL
notes: described as human IgG4; also called 5B7-wt
- binding result [17]: binds
- binding result [18]: binds
- binding result [19]: binds
- binding result [20]: binds
- binding result [21]: binds
- binding result [22]: binds
- binding result [23]: no binding
- binding result [24]: binds
